According to patent publication EP2674440A2:

How the values were obtained:
[1] = molecular target: fusion protein containing the A3B3 domain of CEA (UniProt P06731); test: competitive ELISA against HRP-conjugated hMN-14 IgG (1 nM)
[2] = molecular target: CEA (UniProt P06731); test: SE-HPLC of 125I-TF2 mixed with a 20-fold molar excess of CEA

Question: For TF2 (bispecific antibody), which fold avidity relative to TF1 [1] is on record?
Answer: Its fold avidity relative to TF1 is 2 fold.

Question: What about the % of labeled TF2 shifted to a high molecular weight species [2] of the same substance?
Answer: Its % of labeled TF2 shifted to a high molecular weight species is 95%.
